Literature values, collected in PMC8573850.
Values joined by “and” are separate entries in the source; they are usually repeats but may differ in a detail not shown here. Equal values may be shown once.

Biological target: Neuropilin-1 (Homo sapiens) (UniProt O14786)
UniProt O14786, sequence (O14786 22-856): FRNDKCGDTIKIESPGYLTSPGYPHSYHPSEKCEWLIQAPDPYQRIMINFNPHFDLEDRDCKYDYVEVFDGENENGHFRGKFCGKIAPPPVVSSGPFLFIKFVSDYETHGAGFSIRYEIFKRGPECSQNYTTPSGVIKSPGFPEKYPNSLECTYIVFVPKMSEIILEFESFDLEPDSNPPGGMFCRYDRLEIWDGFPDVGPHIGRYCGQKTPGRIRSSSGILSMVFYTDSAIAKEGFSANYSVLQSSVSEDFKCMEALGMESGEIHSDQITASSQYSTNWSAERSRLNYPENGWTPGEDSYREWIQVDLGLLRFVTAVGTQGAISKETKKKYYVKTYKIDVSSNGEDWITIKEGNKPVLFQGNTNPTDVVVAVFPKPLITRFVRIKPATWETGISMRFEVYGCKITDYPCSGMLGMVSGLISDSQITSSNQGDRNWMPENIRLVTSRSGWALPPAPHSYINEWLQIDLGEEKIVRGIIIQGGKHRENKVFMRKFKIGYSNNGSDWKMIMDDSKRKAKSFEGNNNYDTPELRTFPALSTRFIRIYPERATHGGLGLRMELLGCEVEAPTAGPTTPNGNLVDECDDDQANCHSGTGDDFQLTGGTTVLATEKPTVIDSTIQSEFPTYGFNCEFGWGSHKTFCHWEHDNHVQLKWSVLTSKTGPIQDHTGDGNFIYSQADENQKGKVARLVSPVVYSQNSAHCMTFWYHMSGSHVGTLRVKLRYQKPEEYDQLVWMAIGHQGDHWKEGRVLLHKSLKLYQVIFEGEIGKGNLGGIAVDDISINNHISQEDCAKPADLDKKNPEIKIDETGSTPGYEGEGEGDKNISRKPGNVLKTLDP

Spike protein CendR peptide CendR (from UniProt P0DTC2)
Kd: 13 µM and 20 µM
